Reference: patent US20050119163A1

Target: Biotinylated Grb2 SH2 domain protein (UniProt P62993)
Assay: SPR (Biacore S51), b-Grb2 amine-coupled on CM5 chip, compound in solution

Sequence of Biotinylated Grb2 SH2 domain protein (P62993 60-152 limits assumed): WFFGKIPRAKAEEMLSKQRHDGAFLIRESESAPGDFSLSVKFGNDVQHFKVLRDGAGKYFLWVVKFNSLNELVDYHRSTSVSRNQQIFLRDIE

In the case of “Compound 6, tri-sodium salt of compound 5: 2-{(9S,10S,14R,18S)-7,16,19-Triaza-18-(carbamoylmethyl)-14-[(5-methyl indolyl)methyl]-8,17,20-trioxo-10-[4-(phosphonomethyl)phenyl]spiro[5.14]icos-11-en-9-yl}acetic acid (peptide)”, the Kd is reported as 1.67 nM.
